The values below come from article PMC10786891, “Massively parallel profiling of RNA-targeting CRISPR-Cas13d”.

The chains are these.
T1: EsCas13d, nuclease-dead (Eubacterium siraeum, UniProt B0MS50, R295A;H300A;R849A;H854A)
T1 sequence: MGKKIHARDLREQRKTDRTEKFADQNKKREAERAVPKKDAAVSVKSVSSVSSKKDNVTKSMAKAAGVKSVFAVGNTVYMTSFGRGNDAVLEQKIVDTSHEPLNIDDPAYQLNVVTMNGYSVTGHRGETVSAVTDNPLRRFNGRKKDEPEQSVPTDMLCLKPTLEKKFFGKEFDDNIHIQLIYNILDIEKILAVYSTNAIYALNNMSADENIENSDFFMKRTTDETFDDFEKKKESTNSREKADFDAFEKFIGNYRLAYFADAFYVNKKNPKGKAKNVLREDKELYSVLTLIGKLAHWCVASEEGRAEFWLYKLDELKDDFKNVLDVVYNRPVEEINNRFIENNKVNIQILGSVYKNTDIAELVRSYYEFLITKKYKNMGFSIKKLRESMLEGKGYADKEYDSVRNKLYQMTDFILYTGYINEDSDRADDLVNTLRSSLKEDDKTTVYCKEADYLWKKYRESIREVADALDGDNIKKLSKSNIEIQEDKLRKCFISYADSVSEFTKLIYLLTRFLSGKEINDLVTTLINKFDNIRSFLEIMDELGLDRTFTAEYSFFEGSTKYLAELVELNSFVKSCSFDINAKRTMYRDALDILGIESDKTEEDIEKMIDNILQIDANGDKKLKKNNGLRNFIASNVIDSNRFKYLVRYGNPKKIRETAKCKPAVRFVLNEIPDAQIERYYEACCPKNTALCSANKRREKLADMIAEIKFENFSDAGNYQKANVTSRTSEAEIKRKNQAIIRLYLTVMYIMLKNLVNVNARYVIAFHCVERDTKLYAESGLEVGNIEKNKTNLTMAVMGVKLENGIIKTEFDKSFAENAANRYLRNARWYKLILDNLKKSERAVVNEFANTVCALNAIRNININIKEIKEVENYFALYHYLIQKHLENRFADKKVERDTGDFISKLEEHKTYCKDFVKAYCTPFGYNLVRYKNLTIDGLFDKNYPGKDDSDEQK

B1: target 1 insG 3' of 11,insU 3' of 4 (mixed)
RNA 1: CACCCGUGCAAAAAUGCAGGGGUCUAAAACUGAGCGGAUAACCUCUCUAUGG
RNA 2: GGGAAUGGAUCCACAUCUACGAAUUCGUACCAUAGAGAGGUGUAUCCGCUUCACCGAGAUCGGAAGAGCACACGU
B2: target 1 A14G,G15A (mixed)
RNA 1: B1 RNA 1
RNA 2: GGGAAUGGAUCCACAUCUACGAAUUCGUACCAUAGAAGGGUUAUCCGCUCACCGAGAUCGGAAGAGCACACGU
B3: target 1 MT 5'PFS GAA 3'PFS CAU (mixed)
RNA 1: B1 RNA 1
RNA 2: B2 RNA 2 with U28A, A37G, G38A, C53A, G54U
B4: target 1 C6U,A18C (mixed)
RNA 1: B1 RNA 1
RNA 2: B2 RNA 2 with A34C, A37G, G38A, C46U
B5: target 1 insU 3' of 21,insA 3' of 6 (mixed)
RNA 1: B1 RNA 1
RNA 2: GGGAAUGGAUCCACAUCUACGAAUUCGUACCUAUAGAGAGGUUAUCCAGCUCACCGAGAUCGGAAGAGCACACGU
B6: target 1 insA 3' of 8,insU 3' of 1 (mixed)
RNA 1: B1 RNA 1
RNA 2: B1 RNA 2 with G42U, U43A, A44U, U45A, U51C, C52A, A53U
B7: target 1 insA 3' of 17,insC 3' of 11 (mixed)
RNA 1: B1 RNA 1
RNA 2: GGGAAUGGAUCCACAUCUACGAAUUCGUACCAUAGAAGAGGUCUAUCCGCUCACCGAGAUCGGAAGAGCACACGU
B8: target 1 C6A,G17U (mixed)
RNA 1: B1 RNA 1
RNA 2: B2 RNA 2 with G35U, A37G, G38A, C46A
B9: target 1 insC 3' of 16,insC 3' of 8 (mixed)
RNA 1: B1 RNA 1
RNA 2: B7 RNA 2 with A37C, C43U, U44A, A45U, U46C
B10: target 1 U11A,C22A (mixed)
RNA 1: B1 RNA 1
RNA 2: B2 RNA 2 with C30A, A37G, G38A, U41A
B11: target 1 del11,del14 (mixed)
RNA 1: B1 RNA 1
RNA 2: GGGAAUGGAUCCACAUCUACGAAUUCGUACCAUAGAGGGUAUCCGCUCACCGAGAUCGGAAGAGCACACGU
B12: target 1 insC 3' of 13,insG 3' of 4 (mixed)
RNA 1: B1 RNA 1
RNA 2: B1 RNA 2 with G40C, U41G, G42U, U50G
B13: target 1 A16G (mixed)
RNA 1: B1 RNA 1
RNA 2: B2 RNA 2 with A36G, A37G, G38A
B14: target 1 insA 3' of 13,insU 3' of 5 (mixed)
RNA 1: B1 RNA 1
RNA 2: B1 RNA 2 with G40A, U41G, G42U, C49U, U50C
B15: target 1 insC 3' of 22,insG 3' of 4 (mixed)
RNA 1: B1 RNA 1
RNA 2: B5 RNA 2 with U32C, A48G, G49C, C50G
B16: target 1 MT 5'PFS UAG 3'PFS UUC (mixed)
RNA 1: B1 RNA 1
RNA 2: B2 RNA 2 with G27U, U28A, A29G, A37G, G38A, C52U, C53U, G54C
B17: target 1 del8,del16 (mixed)
RNA 1: B1 RNA 1
RNA 2: B11 RNA 2 with A36G, G37A, A41U, U42A
B18: target 1 insA 3' of 6,insA 3' of 5 (mixed)
RNA 1: B1 RNA 1
RNA 2: B1 RNA 2 with G42U, U43A, A44U, U45C, C47A, C49A, U50C
B19: target 1 insA 3' of 3,insG 3' of 3 (mixed)
RNA 1: B1 RNA 1
RNA 2: B1 RNA 2 with G42U, U43A, A44U, U45C, C47G, G48C, C49U, U50A, U51G
B20: target 1 MT 5'PFS UAG 3'PFS UUG (mixed)
RNA 1: B1 RNA 1
RNA 2: B2 RNA 2 with G27U, U28A, A29G, A37G, G38A, C52U, C53U
B21: target 1 insU 3' of 14,insA 3' of 13 (mixed)
RNA 1: B1 RNA 1
RNA 2: B7 RNA 2 with A37G, G38A, A39U, G41A, U42G, C43U
B22: target 1 insA 3' of 21,insA 3' of 21 (mixed)
RNA 1: B1 RNA 1
RNA 2: B7 RNA 2 with U33A, G35U, A37G, G38A, A39G, G40A, U42G, C43U
B23: target 1 MT 5'PFS UAG 3'PFS UUA (mixed)
RNA 1: B1 RNA 1
RNA 2: B2 RNA 2 with G27U, U28A, A29G, A37G, G38A, C52U, C53U, G54A
B24: target 1 insC 3' of 17,insA 3' of 5 (mixed)
RNA 1: B1 RNA 1
RNA 2: B7 RNA 2 with A36C, C43U, U44A, A45U, U46C, C48G, G49A
B25: target 1 insA 3' of 5,insA 3' of 4 (mixed)
RNA 1: B1 RNA 1
RNA 2: B1 RNA 2 with G42U, U43A, A44U, U45C, C47G, G48A, U50A
B26: target 1 U8G,G12U (mixed)
RNA 1: B1 RNA 1
RNA 2: B2 RNA 2 with A37G, G38A, G40U, U44G
B27: target 1 insU 3' of 17,insU 3' of 17 (mixed)
RNA 1: B1 RNA 1
RNA 2: B7 RNA 2 with A36U, A37U, G38A, A39G, G40A, U42G, C43U
B28: target 1 insA 3' of 17,insA 3' of 3 (mixed)
RNA 1: B1 RNA 1
RNA 2: B1 RNA 2 with G37A, A38G, G39A, U41G, G42U, U51A
B29: target 1 insA 3' of 5,insC 3' of 5 (mixed)
RNA 1: B1 RNA 1
RNA 2: B1 RNA 2 with G42U, U43A, A44U, U45C, C47G, G48A, U50C
B30: target 1 U3G,U8G (mixed)
RNA 1: B1 RNA 1
RNA 2: B2 RNA 2 with A37G, G38A, U44G, U49G
B31: target 1 A16C,A20U (mixed)
RNA 1: B1 RNA 1
RNA 2: B2 RNA 2 with A32U, A36C, A37G, G38A
B32: target 1 G17U,C22A (mixed)
RNA 1: B1 RNA 1
RNA 2: B2 RNA 2 with C30A, G35U, A37G, G38A
B33: target 1 insA 3' of 7,insC 3' of 3 (mixed)
RNA 1: B1 RNA 1
RNA 2: B1 RNA 2 with G42U, U43A, A44U, U45C, C46A, U51C

Positions count from the first letter of the chain named. Numbers in names are those of the source.

The data set addresses T1, EsCas13d, nuclease-dead. Kind of data set: crRNA (strand 1, pre-loaded); Mg2+; 40 mM Tris-HCl pH 7.5, 150 mM NaCl, 6 mM MgCl2, 1 mM DTT, 0.1% Tween-20, 0.2 mg/ml BSA; 25 C; 10 min per concentration, then washed. The conditions noted are these: tags: His6-TwinStrep-SUMO cleaved; N-terminal SNAP kept (SNAP-Surface 488); label: 3' end held by stalled T7 RNA polymerase.
As usually defined, the Kd is the constant that tells how readily two partners part at equilibrium. A low value points to a tighter complex. In turn, B1 displayed a Kd of 65 ± 15 nM. As for B2, the figure is 14.8 ± 1.5 nM; as for B3, about 95 nM; as for B4, 58 ± 7 nM. For the molecule B5, the affinity, expressed as Kd, was 28.2 ± 2.3 nM.

For B6, binding was characterised by a dissociation constant (Kd) of 12.9 ± 0.6 nM. This Kd lies about 2.2-fold lower than the previous one. With B7, binding was put at a Kd of 51 ± 10 nM. Then B8, with 18.7 ± 1.2 nM; and B9, with about 90 nM; and B10, with 47 ± 6 nM. In turn, B11 returned a Kd of 32.4 ± 1.8 nM. The Kd values of the last two molecules are within 1.5-fold of each other. B12 registered a dissociation constant Kd of 5.33 ± 0.22 nM. B13 gave a Kd of 29.4 ± 1.4 nM. In turn, B14 displayed a Kd of 4.34 ± 0.32 nM. The molecule B15 yielded a Kd of 12.8 ± 1.1 nM. Then B16, with 18.9 ± 3.85 nM; and B17, with 71 ± 18 nM; and B18, with 53 ± 6 nM. For the molecule B19, the Kd is 6.2 ± 0.5 nM. Then B20, with 12.9 ± 1.1 nM; and B21, with 9.2 ± 0.8 nM; and B22, with 15.4 ± 0.8 nM.

The molecule B23 yielded a dissociation constant (Kd) of 18.4 ± 3.7 nM. B24 yielded a Kd of 23 ± 4 nM. Then B25, with 9.8 ± 1.1 nM; and B26, with 11.8 ± 1.3 nM; and B27, with 27.7 ± 3.2 nM. In turn, B28 showed a Kd of 11.7 ± 0.4 nM. Molecule B29 came in with a Kd of 11.3 ± 1 nM. For B30, the Kd came out at 10.8 ± 0.4 nM. B31 showed a Kd of 85 ± 29 nM. Then B32, with 31.3 ± 3 nM; and B33, with 6.32 ± 0.25 nM.
